The target of assay [1] is T1, recombinant human IL-27 (human, UniProt Q14213 21-229; Q8NEV9 29-243).
T1 construct: Bought from R&D Systems (Cat. 2526-IL); also called hIL-27; rhIL-27
T1 sequence 1: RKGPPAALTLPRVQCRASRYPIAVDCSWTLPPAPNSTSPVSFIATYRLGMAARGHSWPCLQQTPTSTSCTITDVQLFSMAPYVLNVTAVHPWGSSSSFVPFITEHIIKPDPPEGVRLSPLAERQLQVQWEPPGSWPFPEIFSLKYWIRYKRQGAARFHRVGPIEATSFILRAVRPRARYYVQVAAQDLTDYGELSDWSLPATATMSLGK
T1 sequence 2: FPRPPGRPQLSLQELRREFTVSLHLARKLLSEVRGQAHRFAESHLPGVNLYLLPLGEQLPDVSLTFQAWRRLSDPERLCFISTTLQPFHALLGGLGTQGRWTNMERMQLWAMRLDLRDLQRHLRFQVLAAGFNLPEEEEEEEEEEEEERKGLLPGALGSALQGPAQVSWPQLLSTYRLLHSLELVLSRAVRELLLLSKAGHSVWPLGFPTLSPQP
The assay can be described thus: column 'Affinity hIL-27 (M)', property (i); method not given, paragraph 885 names SPR (BIACORE 2000). (In general: In SPR one partner is held on a chip, and binding of the other changes the refractive index at the surface.)

A further assay deals with T2, recombinant mouse IL-27 (mouse, UniProt O35228 19-228; Q8K3I6 29-234, limits assumed).
T2 construct: also called rodent recombinant IL-27
T2 sequence (looked up) 1: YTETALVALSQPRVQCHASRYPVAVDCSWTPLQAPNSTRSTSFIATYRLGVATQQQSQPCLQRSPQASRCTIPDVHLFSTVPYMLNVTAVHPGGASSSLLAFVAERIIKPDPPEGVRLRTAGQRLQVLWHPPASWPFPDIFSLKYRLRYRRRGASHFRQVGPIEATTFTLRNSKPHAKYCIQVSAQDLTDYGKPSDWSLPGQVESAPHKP
T2 sequence (looked up) 2: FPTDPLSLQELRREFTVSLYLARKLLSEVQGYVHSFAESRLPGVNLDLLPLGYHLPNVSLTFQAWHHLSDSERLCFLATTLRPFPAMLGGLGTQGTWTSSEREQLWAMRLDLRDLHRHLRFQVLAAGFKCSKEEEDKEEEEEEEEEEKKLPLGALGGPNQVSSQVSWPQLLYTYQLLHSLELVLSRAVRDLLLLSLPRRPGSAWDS
The assay can be described thus: column 'Affinity mIL-27 (M)'; method not given.

Assay [2] addresses T1, recombinant human IL-27. The assay can be described thus: SPR (BIACORE 2000) as the paragraph says; values in FIG. 9.
Assay [3] has as its target T1, recombinant human IL-27. The assay can be described thus: cell-based or functional assay.
The target in assay [4] is T1, recombinant human IL-27. The assay can be described thus: SPR single cycle kinetics, 1:1 model. The procedure:
The antibodies were further characterized by surface plasmon resonance (SPR). Kinetic experiments were performed on a Biacore T200 (GE Healthcare, Uppsala, Sweden). All experiments were run at 25° C. with HBS-P+ running buffer (pH 7.4) (GE Healthcare, Little Chalfont, UK) using hIL-27 (R&D Systems, Abingdon, UK). Human IL-27 (hIL-27) antigen was captured on a CM5 chip to ˜16 RU. Immobilization was carried out at a protein concentration of 1 μg/mL in 10 mM acetate buffer pH 5.0. A three point, three-fold dilution range from 3.3 nM to 30 nM of antibody diluted in HBS-P+ buffer without regeneration between each concentration was used. The association phase for the three injections of increasing concentrations of antibody was monitored for 75 seconds each time and a single dissociation phase was measured for 250 seconds following the last injection of antibody. Regeneration of the hIL-27 surface was conducted using a single injection of 2M MgCl₂ for 120 s. Multiple repeats (n=4) of the chimeric antibody were performed throughout the assay to check the stability of the surface and analyte over the kinetic cycles.

The target in assay [5] is T1, recombinant human IL-27. The assay can be described thus: SPR (Biacore T200), hIL-27 on CM5 chip, single cycle kinetics.

The Kd is the concentration at which binding is half-saturated.

Numbering of substitutions follows the chain as printed.

B1: SRF543 (antibody, V domains shown)
VH: QVQLQQWGAGLLKPSETLSLTCAVYGGSFSDYEWSWIRQPPGKGLEWIGEIDWSGITNYNPSLKSRVTISVDTSKNQFSLKLSSVTAADTAVYYCARLPMYYYDSSVSTGSVDVWGQGTMVTVSS
VL: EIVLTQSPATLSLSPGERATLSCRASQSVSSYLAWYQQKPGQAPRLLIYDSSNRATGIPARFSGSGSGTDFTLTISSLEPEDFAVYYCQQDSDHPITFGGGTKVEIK
notes: also called SRF543-A; SRF543-B
Turning to B1, the dissociation constant Kd worked out at 0.026 nM in the assay with recombinant human IL-27 [1] and 62.1 nM in the assay with recombinant mouse IL-27.

B2: SRF410 (antibody, V domains shown)
VH: QVQLVQSGAEVKKPGSSVKVSCKASGGTFSAYAISWVRQAPGQGLEWMGGIIPIFGTANYAQKFQGRVTITADESTSTAYMELSSLRSEDTAVYYCARSYYSSRWHYYYYMDVWGKGTTVTVSS
VL: DIQMTQSPSSVSASVGDRVTITCRASQGISSWLAWYQQKPGKAPKLLIYAASNLQSGVPSRFSGSGSGTDFTLTISSLQPEDFATYYCQQADDLPLTFGGGTKVEIK
notes: also called SRF410-A; SRF410-B
On to B2, for which the equilibrium dissociation constant (Kd) with recombinant human IL-27 [1] was 0.39 nM; with recombinant human IL-27 [2] it was not above 15 nM; with recombinant mouse IL-27, 5.81 nM.

B3: SRF405 (antibody, V domains shown)
VH: B2 VH with S30V, A31G, T57I
VL: B2 VL
notes: also called SRF405-A; SRF405-B
As for B3, the dissociation constant Kd with recombinant human IL-27 [1] is 0.1 nM; with recombinant human IL-27 [2], not above 15 nM; with recombinant mouse IL-27 it was 5.02 nM.

B4: SRF411 (antibody, V domains shown)
VH: B2 VH with S30E, A31S, A33T, I52A, N59H
VL: B2 VL
notes: also called SRF411-A; SRF411-B
Consider B4, for which the dissociation constant (Kd) is 0.43 nM with recombinant human IL-27 [1], not above 15 nM with recombinant human IL-27 [2] and 0.546 nM with recombinant mouse IL-27.

B5: SRF381 (antibody, V domains shown)
VH: EVQLVESGGGLVKPGGSLRLSCAASGFTFRSYGMNWVRQAPGKGLEWVSSISSSSSYIYYADSVKGRFTISRDNAKNSLYLQMNSLRAEDTAVYYCARDGGRTSYTATAHNWFDPWGQGTLVTVSS
VL: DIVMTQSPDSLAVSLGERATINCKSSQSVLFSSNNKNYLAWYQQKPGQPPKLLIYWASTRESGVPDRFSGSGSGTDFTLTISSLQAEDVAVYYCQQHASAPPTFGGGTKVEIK
notes: also called SRF381-A; SRF381-B
With B5, in the assay with recombinant human IL-27 [1], the Kd stood at 0.0028 nM. In addition, in the assay with recombinant human IL-27 [3], the “IC50 of inhibition of phosphorylation of STAT1 in HUT-78 cells” value was determined as 0.08 µg/mL, the “IC50 of inhibition of phosphorylation of STAT1 in U937 cells” value is 0.081 µg/mL and the “IC50 of inhibition of phosphorylation of STAT1 in pooled human PBMCs” value turned out to be 0.141 µg/mL. Also, the equilibrium dissociation constant (Kd) with recombinant mouse IL-27 came to 0.456 nM.

B6: SRF382 (antibody, V domains shown)
VH: B5 VH with R30S, S31R, Y32T
VL: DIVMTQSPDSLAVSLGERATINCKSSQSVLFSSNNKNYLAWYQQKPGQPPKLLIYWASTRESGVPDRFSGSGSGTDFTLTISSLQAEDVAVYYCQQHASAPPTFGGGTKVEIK
notes: also called SRF382-A; SRF382-B
With B6, the equilibrium dissociation constant (Kd) was 0.0075 nM with recombinant human IL-27 [1], not above 15 nM with recombinant human IL-27 [2] and 2.5 nM in the assay with recombinant mouse IL-27.

B7: SRF386 (antibody, V domains shown)
VH: B5 VH with R30A
VL: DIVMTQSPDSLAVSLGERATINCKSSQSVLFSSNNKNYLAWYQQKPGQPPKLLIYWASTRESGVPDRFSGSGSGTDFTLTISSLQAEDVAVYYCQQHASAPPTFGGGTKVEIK
notes: also called SRF386-A; SRF386-B
B7: the dissociation constant Kd with recombinant human IL-27 [1] is 0.0034 nM; with recombinant human IL-27 [2], not above 15 nM; with recombinant mouse IL-27 it was 1.75 nM.

B8: SRF384 (antibody, V domains shown)
VH: B5 VH with R30S, S31R, S56A, Y59L
VL: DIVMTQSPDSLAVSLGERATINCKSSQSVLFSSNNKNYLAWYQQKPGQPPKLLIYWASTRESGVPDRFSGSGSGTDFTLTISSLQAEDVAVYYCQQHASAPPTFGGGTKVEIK
notes: also called SRF384-A; SRF384-B
Consider B8, for which the figures for the dissociation constant Kd with recombinant human IL-27 [1], with recombinant human IL-27 [2] and with recombinant mouse IL-27 were 0.0024 nM, not above 15 nM and 0.405 nM, respectively.

B9: SRF538 (antibody, V domains shown)
VH: QVQLVESGGGVVQPGRSLRLSCAASGFTFSSYGMHWVRQAPGKGLEWVAVIWYDGSNKYYADSVKGRFTISRDNSKNTLYLQMNSLRAEDTAVYYCARGAPEYVDVWGQGTMVTVSS
VL: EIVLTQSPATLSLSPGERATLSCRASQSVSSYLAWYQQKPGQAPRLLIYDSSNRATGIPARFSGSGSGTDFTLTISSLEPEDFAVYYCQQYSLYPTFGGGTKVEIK
notes: also called SRF538-A; SRF538-B
B9: the dissociation constant Kd was 8.93 nM with recombinant human IL-27 [1], not above 15 nM in the assay with recombinant human IL-27 [2] and 182 nM with recombinant mouse IL-27.

B10: Ab7.6 (antibody, human IgG1, kappa, V domains shown)
VH: EVKLVESGGGLVQPGGSLRLSCAASGFTFTSYSMSWVRQAPGKGLEWVAYISYDGGSAYYPDTVKGRFTISRDNSKKTLYLQMSSLKSEDTAMYYCARHGDYDDDDAMDYWGQGTSVTVSS
VL: DIQMTQSPSSLSASVGDRVTITCRASENIYSYLAWYQQKPGKAPKLLVYNAETLTEGVPSRFSGSGSGTDFTLTISSLQPEDFATYYCQHHYGTPLTFGQGTKLEIKR
notes: human IgG1/kappa
In the case of B10, the binding result in the assay with recombinant human IL-27 [4] is recorded as “binds”.

B11: Ab7.11 (antibody, human IgG1, kappa, V domains shown)
VH: B10 VH with K3Q, K77N, S116L
VL: B10 VL with A34N
notes: human IgG1/kappa; also called Ab7-VL4 humanized variant
On to B11, for which the binding result with recombinant human IL-27 [5] was “no binding (tested: 3.3 nM to 30 nM of antibody)”.

B12: Ab7.7 (antibody, human IgG1, kappa, V domains shown)
VH: B10 VH
VL: B10 VL with A34N
notes: as for B11
Consider B12, for which the binding result with recombinant human IL-27 [5] is recorded as “no binding (tested: 3.3 nM to 30 nM of antibody)”.

B13: Ab7.23 (antibody, human IgG1, kappa, V domains shown)
VH: B10 VH with K3Q, A49S, K77N, S84N, K87R, S88A, M93V, S116L
VL: B10 VL with A34N
notes: as for B11
In the case of B13, in the assay with recombinant human IL-27 [5], the binding result was “no binding (tested: 3.3 nM to 30 nM of antibody)”.

B14: Ab7.19 (antibody, human IgG1, kappa, V domains shown)
VH: B10 VH with K3Q, K77N, S84N, K87R, S88A, M93V, S116L
VL: B10 VL with A34N
notes: as for B11
As to B14, the binding result in the assay with recombinant human IL-27 [5] is “no binding (tested: 3.3 nM to 30 nM of antibody)”.

B15: Ab7.15 (antibody, human IgG1, kappa, V domains shown)
VH: B10 VH with S84N, K87R, S88A, M93V, S116L
VL: B10 VL with A34N
notes: as for B11
As to B15, the binding result with recombinant human IL-27 [5] is “no binding (tested: 3.3 nM to 30 nM of antibody)”.

B16: SRF535 (antibody, V domains shown)
VH: EVQLVESGGGLVQPGGSLRLSCAASGFTFSSYGMSWVRQAPGKGLEWVANIKQDGSEKYYVDSVKGRFTISRDNAKNSLYLQMNSLRAEDTAVYYCARDAPWDIYDYYMDVWGKGTTVTVSS
VL: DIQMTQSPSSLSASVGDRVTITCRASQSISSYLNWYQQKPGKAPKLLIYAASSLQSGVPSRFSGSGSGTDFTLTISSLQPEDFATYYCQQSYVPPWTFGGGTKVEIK
notes: also called SRF535-A; SRF535-B
For the molecule B16, the dissociation constant Kd with recombinant human IL-27 [1] is 11.5 nM; in the assay with recombinant human IL-27 [2], not above 15 nM. In addition, the binding result in the assay with recombinant mouse IL-27 is “no binding”.

The record behind these values is US20190382474A1 (SURFACE ONCOLOGY, published 2019).
